In US20160083711:

Target: T1, fluorogenic peptide (MCA)Lys-Lys-Pro-Ala-Glu-Phe-Phe-Ala-Leu-Lys(DNP)
T1 chain: KKPAEFFALK

B1: proCardosinB lacking the PSI region (pCBΔPSI) (protein)
chain: MVSNGGLLRVGLKKRKVDRLDQLRAHGVHMLGNARKDFGFRRTLRDSGSGIVALTNDRDTAYYGEIGIGTPPQNFAVIFDTGSSDLWVPSTKCDTSLACVIHPRYDSGDSSTYKGNGTTASIQYGTGAIVGFYSQDSVEVGDLVVEHQDFIETTEEDDTVFLKSEFDGILGLGFQEISAGKAVPVWYNMVNQGLVEEAVFSFWLNRNVDEEEGGELVFGGVDPNHFRGNHTYVPVTRKGYWQFEMGDVLIGDKSSGFCAGGCAAIADSGTSFFAGPTAIITQINQAIGAKGGGGSAESIVDCNGISSMPNIAFTIGSKLFEVTPEQYIYKVGEGEAATCISGFTALDIMSPQGPIWILGDMFMGPYHTVFDYGKLRVGFAEAV
B1 showed a Km of 8.7 µM, a VMax of 2.15e-05 µmol/s and a kcat of 36.5 s⁻¹. The kcat/Km was 4.2e+06 M⁻¹ s⁻¹.
